The record followed here is patent publication US20230228751 (APTAMER DIAGNOSTICS LIMITED, published 2023).

Substitutions are numbered along the chain they refer to.

The target of data set [1] is T1, SARS-CoV-2 spike S1 subunit (SARS-CoV-2, UniProt P0DTC2 SEQ:1-670). Briefly: BLI. The following applies: tags: His tag, SinoBiological 40591-V08B1; label: 5'-biotin.
The target in data set [2] is T2, SARS-CoV spike S1 subunit (SARS-CoV, UniProt P59594 SEQ:14-667). Briefly: ELONA. Conditions: tags: SinoBiological; label: 5'-biotin.
Data set [3] concerns the target SARS-CoV-2 spike S2 subunit (SARS-CoV-2, UniProt P0DTC2 SEQ:1-528). Briefly: BLI. Conditions: label: 5'-biotin.
Data set [4] has as its target T3, SARS-CoV-2 spike protein trimer (SARS-CoV-2, UniProt P0DTC2). Put plainly: ELONA. How it is done: One ELONA plate (immobilised with the S1 binding aptamer A3) was then incubated with a fixed concentration (0.5 μM) of either the aptamer population isolated against the S2 subunit of the SARS-CoV-2 spike protein (S2_8R pool) or full-length aptamer clones S2_A2 (SEQ ID NO: 146), S2_B1 (SEQ ID NO: 150) and S2_G1 (SEQ ID NO: 171) (FIG. 16).

Data set [5] addresses T3, SARS-CoV-2 spike protein trimer. Put plainly: BLI. The following applies: label: 5'-biotin. The text has this:
The aptamers described herein have been isolated using recombinant proteins which represent portions of the full viral surface spike protein (SEQ ID NO: 117). In particular, an amino acid sequence comprising residues Ser686 to Pro1213 of SEQ ID NO: 119 was used to isolate aptamers against the S2 subunit from the SARS-CoV-2 spike protein. For diagnostic and therapeutic applications of the aptamers, it is desirable that the aptamers are capable of binding to the spike protein in the full trimeric form. For example, any aptamers which bind to regions of the monomer which are not accessible in the trimeric spike may not be capable of binding to the virus and so would be less likely to perform well as a diagnostic or therapeutic. Several of the isolated aptamers and Optimers isolated against the S2 subunit of the SARS-CoV-2 spike protein (SEQ ID NO:119), were assessed for binding to the full trimeric spike using the BLI assay described above. Briefly, exemplar Optimers were immobilised onto BLI sensor probes and assessed for the ability to bind to the full SARS-CoV-2 spike protein trimer at a range of concentrations (500 nM, 166 nM, 55 nM, 18.5 nM, 6.1 nM, 2 nM and 0.6 nM in 1× ‘high salt’ aptamer selection buffer). […] Importantly, each of the S2_A2_F12 SEQ ID NO: 179), S2_B1_F12 SEQ ID NO: 188) and S2_G1_F21 (SEQ ID NO: 190) aptamers has a rapid association rate (0-120 sec) and a slow dissociation rate (120-240 sec); which may be important for many diagnostic applications.

In data set [6] the target is T1, SARS-CoV-2 spike S1 subunit. Put plainly: BLI. Conditions: tags: His tag, SinoBiological 40591-V08B1; label: 5'-biotin. How it is done: The affinity of four chosen aptamers (aptamer S1_A3-A (SEQ ID NO: 4); aptamer S1_A6 (SEQ ID NO: 8); aptamer S1_A8 (SEQ ID NO: 9); aptamer S1_F2 (SEQ ID NO: 43)) was determined using the BLI assay according to the protocol described above. The biotinylated aptamers were immobilised onto streptavidin biosensor probes (as described above) and then interaction monitored with a concentration series of SARS-CoV-2 Spike protein S1 (250 nM, 125 nM, 62.5 nM, 31.25 nM, 15.63 nM, 7.81 nM, 0 nM diluted in 1× ‘high salt’ aptamer selection buffer). KD values were calculated using the ForteBio software (ForteBio Data Analysis 8.0,), using a 2:1 binding model (FIGS. 6 & 7).
The source holds these as a separate data set.

Data set [7] addresses T2, SARS-CoV spike S1 subunit. Put plainly: BLI. Conditions: tags: SinoBiological; label: 5'-biotin.
The target of another data set is SARS-CoV-2 spike RBD (SARS-CoV-2, UniProt P0DTC2 SEQ:1-223). Put plainly: BLI. The following applies: tags: His tag, SinoBiological 40592-V08H; label: 5'-biotin.

AATGCGTGGGAAGGGTGGGTGGGAGCATTGATA (ssDNA) [S1_A3_F18]: the binding result in data set [1] is “binds”; in data set [2] it was “no binding”.

B1: S2_A2 (ssDNA)
DNA: CCAGTGTAGACTACTCAATGCCGATGGGTCGGGGGGGTGGGTAGGCATTGATCGCTCCTTTCGTACTATCCACAGGTCAACC
Turning to B1, the binding result in data set [3] and in data set [4] was “binds” in each case.

With TGGATATGGGTGGGAGGGATGGGT (ssDNA) [S2_G1_F22], the binding result in data set [3] and in data set [5] was “binds” in each case.

B2: S2_B1 (ssDNA)
DNA: CCAGTGTAGACTACTCAATGCCGTGGACTGGTCGGGTTTGGATTCGGCAGATGAATCAGTAGTACTATCCACAGGTCAACC
On to B2, for which the binding result in data set [3] and in data set [4] was “binds” each time.

B3: S1_F2 (ssDNA)
DNA: CCAGTGTAGACTACTCAATGCTGCGTTGACTTGATCCTGTGGTATATGGGTGGGAGGGTCGGGTACTATCCACAGGTCAACC
Consider B3, for which the binding result is recorded as “binds” in data set [6], “no binding” in data set [7] and “binds” with SARS-CoV-2 spike RBD.

B4: S1_A8 (ssDNA)
DNA: B3 DNA with C24T
With B4, the binding result is “binds” in data set [6], “no binding” in data set [7] and “binds” with SARS-CoV-2 spike RBD.

B5: S1_A6 (ssDNA)
DNA: CCAGTGTAGACTACTCAATGCTGTTATGACTTGACCTTGGGTTATGGGTTTGGGCGGGAGGGTACTATCCACAGGTCAACC
Take B5: the results for the binding result (in data set [6]; in data set [7]; with SARS-CoV-2 spike RBD) were “binds”, “no binding” and “binds”, respectively.

B6: S1_A3-A (ssDNA)
DNA: CCAGTGTAGACTACTCAATGCGTGGGAAGGGTGGGTGGGAGCATTGATAACTCGGAGGAGTGTACTATCCACAGGTCAACC
For the molecule B6, the binding result is “binds” in data set [6], “no binding” in data set [7], “binds” with SARS-CoV-2 spike RBD and “binds” in data set [4] (label: 5' biotin).

Take AATGCCGTGGACTGGTCGGGTTTGGATTCGGCA (ssDNA) [S2_B1_F18]: the binding result in data set [3] and in data set [5] was “binds” each time.

B7: S2_G1 (ssDNA)
DNA: CCAGTGTAGACTACTCAATGCGGCTGTGTGACTTGACCTCTGGATATGGGTGGGAGGGATGGGTACTATCCACAGGTCAACC
For B7, the binding result in data set [3] and in data set [4] was “binds” throughout.

As for AATGCCGATGGGTCGGGGGGGTGGG (ssDNA) [S2_A2_F17], the binding result in data set [3] and in data set [5] was “binds” throughout.
